# Laboratory results from patent publication US12723255B2, “Herbicide tolerance genes and methods of use thereof” (priority 2014, dated 2026).
# Assays:
# [1] = format: biochemical
# Method: To analyze these engineered proteins for activity in higher temperatures, the in vitro enzyme assay in Example 1 was modified to specify pre-heating all of the assay components to the desired temperature for 5 minutes before combining the components and then maintaining the reaction at the desired temperature for the duration of the reaction. To normalize the assay measurements, quizalofop-P was used as the substrate for the reaction and enzyme activity was normalized based on the 25° C. readings. Using these parameters, the temperature at which the enzyme activity was half of maximum (T1/2) was calculated. The T1/2 for MON-HT55 was calculated to be 29° C., and the T1/2 for wild-type RdpA was calculated to be 38° C. (FIG. 2A).
# Enzyme activity over a range of temperatures was analyzed in-depth for MON-HT1, MON-HT2, MON-HT7, and MON-HT8. These assays were conducted as described above. Quizalofop-P or 2,4-D was used as the substrate for these reactions and activity was normalized based on the activity of the wild-type enzyme at 25° C. The activity curves obtained are presented in FIG. 2B (with quizalofop-P as the substrate) and FIG. 2C (with 2,4-D as the substrate). Using quizalofop-P as the substrate, MON-HT55 was the most temperature sensitive, with a T1/2 of 29° C. […] MON-HTI was slightly less temperature sensitive, with a T1/2 about 1° C. higher than the wild-type enzyme.
# transgenic maize plants = test: trait efficacy field trials with homozygous inbred plants, CTP evaluation; format: in vivo; details: CTP A, crop injury percentage; for 2X Quizalofop-P CIPV4: 0.16 lb ai/acre at V4, V8, LSD (0.05) = 1.45; for 2X Quizalofop-P CIPV8: 0.16 lb ai/acre at V4, V8, LSD (0.05) = 2.2; for 2X 2,4-D CIPV4: 2 lb ae/acre at V4, V8, LSD (0.05) = 0.95; for 2X 2,4-D CIPV8: 2 lb ae/acre at V4, V8, LSD (0.05) = 1.6
# Description: To evaluate different chloroplast targeting peptides (CTP), plant transformation vectors were constructed, each comprising a recombinant DNA molecule optimized for monocot expression and encoding MON-HTI (SEQ ID NO: 16), MON-HT2 (SEQ ID NO:20), and MON-HT8 (SEQ ID NO:39), MON-HT9 (SEQ ID NO:42), or MON-HT10 (SEQ ID NO:45). The vectors were created using the same combination of promoter, leader, intron, and 3′-UTR, but with one of three separate CTPs (A, B, or C) or without a CTP operably linked to the protein-coding sequence. The DNA constructs were used to transform immature maize (LH244) embryos using Agrobacterium tumifaciens and standard methods known in the art. Regenerated RO transgenic plantlets were grown in the green house. The R0 plants were selfed to generate R1 homozygous seed. The R0 plants were also used as the male to cross with inbred plants containing maize event MON89034 to generate segregating F1 hybrid seed for trait efficacy field trials.
# Separate trait efficacy field trials for quizalofop-P and 2,4-D were conducted at two locations each with the homozygous inbred transgenic plants (R2 or R4 generation). In these field trials, one of two herbicide treatments was used: (1) quizalofop-P (Assure II) at 0.16 lb ai/acre (2×) plus 0.25% v/v non-ionic surfactant (NIS) applied at V4 growth stage followed by the same at V8 growth stage; or (2) 2,4-D amine at 2 lb ae/acre (2×) plus 0.25% v/v non-ionic surfactant (NIS) applied to V4 followed by V8. Injury ratings (crop injury percentage at V4 (CIPV4) or V8 (CIPV8)) were taken 10 to 14 days after the V4 and V8 applications. Error was calculated using LSD (0.05).
# F1 hybrid maize plants = test: trait efficacy field trial, quizalofop-P pressure screening, F1 hybrid; format: in vivo; details: CTP A, crop injury percentage; for 4X Qizalofop-P CIPV4 / 4X Qizalofop-P CIPV8: 0.32 lb ai/acre at VE-V2, V4, V8; for 8X Qizalofop-P CIPV4 / 8X Qizalofop-P CIPV8: 0.64 lb ai/acre at VE-V2, V4, V8; for 16X Qizalofop-P CIPV4 / 16X Qizalofop-P CIPV8: 1.28 lb ai/acre at VE-V2, V4, V8
# Method: Separate trait efficacy field trials for quizalofop-P and 2,4-D pressure screening were conducted at one location each with F1 hybrid transgenic plants produced by crossing an inbred plant containing maize event MON89034 with an R1 plant containing MON-HT1, MON-HT2, MON-HT8, MON-HT9, and MON-HT10 with and without operably linked CTP sequences. Transgenic F1 hybrid plants containing maize events NK603×MON89034 were used for comparison as a control.
# In the trait efficacy field trial for quizalofop-P tolerance, one of three herbicide treatments was used: (1) quizalofop-P (Assure II) at 0.32 lb ai/acre (4×) plus 0.25% v/v non-ionic surfactant (NIS) applied at VE-V2 growth stage followed by the same at V4 growth stage followed by the same at V8 growth stage; (2) quizalofop-P at 0.64 lb ai/acre (8×) plus 0.25% v/v NIS applied at VE-V2 growth stage followed by the same at V4 growth stage followed by the same at V8 growth stage; or (3) quizalofop-P at 1.28 lb ai/acre (16×) plus 0.25% v/v NIS applied at VE-V2 growth stage followed by the same at V4 growth stage followed by the same at V8 growth stage. Plots were visually rated as above. […] The injury rating for the control plants after all quizalofop-P application was 100%. Error was calculated using LSD (0.05).
Molecule,"T1/2, temperature at which the enzyme activity was half of maximum [1] [°C]",2X Quizalofop-P CIPV4 (transgenic maize plants),2X Quizalofop-P CIPV8 (transgenic maize plants),"2X 2,4-D CIPV4 (transgenic maize plants)","2X 2,4-D CIPV8 (transgenic maize plants)",4X Qizalofop-P CIPV4 (F1 hybrid maize plants),4X Qizalofop-P CIPV8 (F1 hybrid maize plants),8X Qizalofop-P CIPV4 (F1 hybrid maize plants),8X Qizalofop-P CIPV8 (F1 hybrid maize plants),16X Qizalofop-P CIPV4 (F1 hybrid maize plants),16X Qizalofop-P CIPV8 (F1 hybrid maize plants),"temperature sensitivity compared with the wild-type enzyme ([1]; substrate 2,4-D, lower T1/2 than wild-type)"
"MON-HT55: engineered oxygenase protein, amino acid sequence SEQ ID NO:11 (protein) MHAALSPLSQRFERIAVQPLTGVLGAEITGVDLREPLDDSTWNEILDAFHTYQVIYFPGQAITNEQHIAFSRRFGPVDPVPLLKSIEGYPEVQMIRREANESGRVIGENWHTDSTFLDAPPAAVVMYAKEIPPYGGDTLFTSMYTAWETLSPTMQATIEGLNVVHSATRVFGSLYQAQNRRFSNTSVKVMDVDAGDRETVHPLVVTHPETGRKGLYVNQVYCQRIEGMSEKESEPLLSFLFAHATKPEFTCRVRWQEGDVLVWDNLCTQHYAVPDYAGKFRYLTRTTVGGVRPAR",29,,,,,,,,,,,
"MON-HT9: engineered oxygenase protein, amino acid sequence SEQ ID NO:40 (protein) MHAALTPLTNKYRFIDVQPLTGVLGAEITGVDLREPLDDSTWNEILDAFHTYQVIYFPAQQITNEQHISFSRRFGPVDPVPLLKSIEGYPEVQMIRREANESGRILGDDWHTDSTFLDAPPAAVVMRAIEVPEYGGDTGFLSMYSAWDTLSDTMKATIEGLNVVHSATRVFGSLYQAQNWRFSNTSVKVMDVDAGDRETVHPLVVSHPVTGRRALYCNQVYCQRIEGMTDAESKCLLQFLYEHATKFDFTCRVRWKKDQVLVWDNLCTMHRAVPDYAGKFRYLTRTTVAGDRPAR",,0,0,3.75,1.25,0,5,2.5,15,7.5,20,
"MON-HT10: engineered oxygenase protein, amino acid sequence SEQ ID NO:43 (protein) MHAALTPLTNKYRFIDVQPLCGVLGAEITGVDLREPLDDSTWNEILDAFHTYQVIYFPGQAITNEQHIAFSRRFGPVDPVPLLKSIEGYPEVQMIRREANESGRILGDDWHTDSTFLDAPPAAVVMRAIEVPEYGGDTGFLSMYSAWDTLSDTMKATIEGLNVVHSATRVFGSLYQAQNWRFSNTSVKVMDVDAGDRETVHPLVVSHPVTGRRALYCNQVYCQRIEGMTDAESKCLLQFLYEHATKFDFTCRVRWKKDQVLVWDNLCTMHLAVPDYDGKFRYLTRTTVAGDKPSR",,0,0,0,1.25,0,5,2.5,10,5,21,
"MON-HT7: engineered oxygenase protein, amino acid sequence SEQ ID NO:34 (protein) MHAALTPLTNKYRFIDVQPLTGVLGAEITGVDLREPLDDSTWNEILDAFHTYQVIYFPGQAITNEQHIAFSRRFGPVDPVPLLKSIEGYPEVQMIRREANESGRVIGDDWHADSTFLDAPPAAVVMRAIEVPEYGGDTGFLSMYSAWETLSPTMQATIEGLNVVHSATKVFGSLYQATNWRFSNTSVKVMDVDAGDRETVHPLVVTHPVTGRRALYCNQVYCQKIQGMTDAESKSLLQFLYEHATKFDFTCRVRWKKDQVLVWDNLCTMHRSVPDYAGKFRYLTRTTVAGDKPSR",47,,,,,,,,,,,slightly more temperature sensitive
